One protein from paper PMC5814352 (Nature, 2018) can be followed below.

This series concerns the molecule itself. Description: crystal structure.

B1: human DNMT3A (R836A) C-terminal domain (residues 628-912) (domain or fragment, UniProt Q9Y6K1-1 628-912, looked up)
chain: AEKRKPIRVLSLFDGIATGLLVLKDLGIQVDRYIASEVCEDSITVGMVRHQGKIMYVGDVRSVTQKHIQEWGPFDLVIGGSPCNDLSIVNPARKGLYEGTGRLFFEFYRLLHDARPKEGDDRPFFWLFENVVAMGVSDKRDISRFLESNPVMIDAKEVSAAHRARYFWGNLPGMNRPLASTVNDKLELQECLEHGRIAKFSKVRTITTASNSIKQGKDQHFPVFMNEKEDILWCTEMERVFGFPVHYTDVSNMSRLARQRLLGRSWSVPVIRHLFAPLKEYFACV
modifications: covalently bound to Zebularine of the 25-mer DNA
Take B1: the binding result is recorded as “binds”.
